Reference: the domain aggregation screens of Martell et al. (2025)

Assay: soluble fraction after stress (log2 fold change); higher = more stays soluble; pooled small domains, quantitative proteomics
Conditions: stress: 75 degC
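Note: 20 min heating vs room temperature control held 20 min.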

| Sequence | soluble fraction (log2) |
| --- | --- |
| HMDGAPVTVIKNGEVDVATTMRVGLSASELMFKLRAAGVDEVQIVHRAVLEQNGQLTIIKYGEE | -2.03 |
| HMDGASVQRITELTATLNRYRHEYYNLAKPSVSDAVYDRLFDELAALEQKTGIVLSNSPTQTV | -0.326 |
| HMDGFVFVMPIKETRMFSVNDERPLVGIVKYSNGEFEKEQLIGFRPNSEYEFIIEGQRLYRVPVNSITIK | -1.08 |
| HMDGIRLYPGLMIEHKNFGRGQVVSVNRERGTFTAFFGKNGTRTLTIQILKTDTVRPLASQKAGK | -0.594 |
| HMDGKPSLIISNGQINYKEMVKLRYSLEDLLFQLRQNSIKSIEEVEYAFLESNGKLSIFPYNFL | -2.53 |
| HMDGLGLGAVILAQRKRQGWTQEDLAARIGVSKGAVSKWETGQSYPDLPLVPRLAALFHITVDELLDYR | -2.35 |
| HMDGLIRLNKLLATLGVESRRHAEEMIIAGRITVDGVTATEKGQKVRRGAVIKVDGVEVGPPP | -0.581 |
| HMDGQPQLLIKNGQLLVSTALKNGMSANDLMFRLRTEGITDIRYVKRAVLEQNGQLTITQVGDD | -0.622 |
| HMDGVTEYTVKSGDSFSAIINKHYNVNYDEKLMQAVAAYNNIEDMNKLQLGQIIKLPPKEQLNL | -0.0462 |
| HMDGYVPAERIASEVGVSARTITREMHGLEMTLMPYGIALLRRTGAGFMLAGTAKALADLRKHMTEDADTQ | 0.134 |
| HMDHAHWEEHEVKLLLTLAIQEKEKFNWNQFGLTREGWRNIYPHFPQYSRKQINNKFDFLKQKYRAWKDS | -1.8 |
| HMDHAVINSEEVTIKDLSEKIGVSAAEIIKALFTEGIIKTINDKIEYEYAQYVAGMFGVELTLKL | 0.357 |
| HMDIANEQEQIFITAMRNDDFNPILELKMKGYQPSKNVLKSLQPDVSSTTFIAAAKIFQMEGVL | -1 |
| HMDIASNQIQGIKDSVGGDENYSKMVAWALESLPAEEVKAFNDLTETANAPAIKMAVQGLYSQYNNAM | 0.195 |
| HMDIDGVSENGRLILAALDKEALDFDTLAAETGIQESRLRTELTLLEIRKLIMKLPGQRYRLI | -2.39 |
| HMDIDNDIIENILVMGVTKAIAINLSNEFERHRIIANIEYAKEKSKNSEIKNISAFTVEAIRQDYANS | -1.34 |
| HMDIEITIPPEAKELDVSKILISGNIITDEQEFLDYLKQNNVAAFKDGNYKLNKNMTTEEIVNQIK | 0.691 |
| HMDIESREAWVDASGMGVRLDRWLTQLAPEFSRNHLQSLIERGAVRVDGQPALVASRKLRIGQQVAVSLIP | -1.31 |
| HMDIEVEVPNLVGMSLDEAKSIIQSMGLVVGLTIEDPSAKVSDNSVTKQKPTYQTGVKLRSGDMIDIWYAG | -0.659 |
| HMDIFSSFVAIKNANVRELPTAKSAQVATLSKGSEVTALGKVKGKNWYLVARDGKELGYVFGSLIAEAET | -1.56 |
| HMDIINLADNIARLRRRRQITQEELADYLGVTKAAVSKWENRQTMPDILLLPRLAGLFEVTIDELVGY | -2.19 |
| HMDIKDRSGVTIDESNEAQQESIIRESWAEQKISGNVDNYIAYLKANGMLLETAKIELAALQEKDASLRE | 0.774 |
| HMDILEVLIKKDLAMELLEQLTERQRTVVYLRYFYQLNQKEIADYLGISQQRVSEILSRAKAVLTAYTKK | -3 |
| HMDILPEGNYKVNYDVIDEVGNIVANKNDIVVTEKSIKPLNTILGIDLYEVIHSQTGKYFTINGDNLTN | -0.0277 |
| HMDINLGIGPLVKKYRTIKGYSIRELARNINVTASMLSQIERDIVNPSINTLKAISVELGVPMYKFFM | -2.38 |
| HMDINLSENLVRLRHAKKLTQEQLADFLGVTKASVSKWETRQSLPDILLLPRLAAFYGVTVDELIGYEP | -1.81 |

| Sequence | soluble fraction (log2) |
| --- | --- |
| HMDISKTLGKNPLLIIDNIEYRGKTLDEITAMTGVKRFENIDIYGSEEAMKTYGEKAKDGVIIAYTT | 0.0575 |
| HMDITGIGIKKRIKAIIDSEDKKNPLSDTQIVEILKNEGLEISRRTVAKYRSDLQIPSSSKRKK | 0.143 |
| HMDIVEIYVGEEDGERIDSYLAQELNNVSRSYVQGLIKNQLITVNGNHVKPKHIVKEGEHIIVNIPPPKV | -0.0948 |
| HMDIVENSMPNVVGLELNRAKELMTQLGFTNVRYEPTESSRPENEVVYQSVDKDETLDVSSEIIIQYSSGV | 0.0628 |
| HMDKEKLQEKLLQIFEAEPQKKFQVQDLVKVLDMEGAGQFKFVVQALADLEHNKQIKLSEDDTFSLIVKE | -0.173 |
| HMDKENVLQLQKDLLRLSVNALEKRYYQFSDILLLKYILPLVPKEISIDDQSRLRSLLSGIN | -0.538 |
| HMDKEPTHLHTFRLIKEGKSSEEIAEIRNITLGTVNTHLAKLIAVGELTIEQVISKHRLDYVMEAIKNSK | 0.176 |
| HMDKKIVGVNAGKVWQALNEVTEISIVELAEKLNLSVESTALAAGWLAREDQISIERKNGTIELQRKN | -0.91 |
| HMDKNNLLIIYRTNSEGTPYAFSVTPSAKSLDALHKDAKEMLPFLEKSMNNFFSIQIWERAEYLKY | -0.785 |
| HMDKPGMRLNQFIAHSGISSRREADNLIKAGLVQVNGKIIVEMGFRVMPTDIVKFNNETIAS | -2.08 |
| HMDKPIVFLEDTKAHKSSDLQSPVYMTVPKGTIAFVIAEKGDWSQVYAGRVLDRNLASQWVRRGFS | 0.267 |
| HMDKSLDFASIKSVEIATGRKFGWHALKKWSKSNSSEIKTIPDPNFGEVKTYHKDAWLAVYNINLSPILD | -0.376 |
| HMDKSPMIGTAEYEGVLYWRQTKDNGATWEWITDKNGDKMPVSGPAPAVGIDKDGYWTVNGESTGVLAKD | 0.225 |
| HMDKVSYALGLGIGRQLTDMGAKDLNIDDFAQAIKDVLAGGEVKLSDAEAQTIVRNFFDEQEKKQRA | -0.029 |
| HMDLANLQNGQTLPLQRDVEVISIPFGKTISLSEDSVVSIMQAKGSSVSVAYEGRLYLIEGSNLDALGLEP | -1.1 |
| HMDLANRSLDRGITILESLARNGASSLADLHRDSGIAKSTIRRLLGTLIQHRLVRRSVADGLYRVTIPLPA | -1.42 |
| HMDLDIQNYNLDEILELFKVSYDFDETELKKAHKMYLMTHPDKSNLNPNIFLFFVQAYDILRKLYEFR | -0.691 |
| HMDLDIRDDIYRANIPNDYKLQQMQNNIDYDKVLTGYYNNRPEANVIANRTLQLANDVYNRD | 0.00307 |
| HMDLDLNIDNYNFDDLLNLFGLKMKFSEDDLKKAKRSVLMTHPDKSGLDKQYFMFFTKAYKMLSQIYYFR | 0.572 |
| HMDLDPNKPAIPIAYPRVLLNIMAEKGFSRTEVLAGSGLADSVFDKPDHRITPAQFLFILMNSFYLS | -0.67 |
| HMDLFLVYQFIRRLATPFTEWKAHELGIIDDKGVQLKKRRDFTTREEKDAYGIFDIMITKLKRLIEKV | 0.0817 |
| HMDLFSAVVHHIVGQQISTKAQATIWKRMRDEFGVVDAAAVLGAGVEKLQSFGMTFRKAEYITDFARKIE | -2.61 |
| HMDLGLTDDQRLVYGLLSPTVPRSSGELLGMVDFGRSKLSRILKELIELGQVFTVGVGRGLKYKRG | -0.482 |
| HMDLGTHMRLIVPTGMRVDHIVYESNGKNISVDHDRSISVRWNGEVVSIDVSPLPSRPDFDVLIYMSPK | -0.134 |
| HMDLLAESLTRREAEVAALAARGLTNRAIAELFGLSVRTAETHLHRAMGKLGANRREDLLLHADRLDPG | -1.41 |
| HMDLLESLSAREREVVHLASRGLVNKLIARELGITERTVKAHLSSAFEKLHIKDRVHLALLVNGI | -2.46 |

| Sequence | soluble fraction (log2) |
| --- | --- |
| HMDLLKANNLSQINVDKLTDEEILKYSQQLKQSGLTESQAEQIAIARGMPATEIAKLKQRLISLTNMQ | 0.118 |
| HMDLLVWRVADEDAGERIDKLVVDSLDDVSRTAVQQWIKDGLVTVNGKTVKPNYKAAAGDEVAVSVPEPE | 0.239 |
| HMDLMKKTLTKEMLLIDFMKQQFPDSSTNKLRKMLSSGRVKINNLITHKAKSQLKLGDIFELANKPHD | -1.31 |
| HMDLPGIVTETDRQRADLAARIGAAKVEAVLAGGARSVEADEDFDADTRRELHQFLTRMARRAFLEER | 0.1 |
| HMDLPSSETLKVKLNLAKAYVTIEDFGAARRALDEVLSVSSLVDPDLTIQAKSLLAEIDQRS | -0.352 |
| HMDLQAAWLQTVRHLLAHTEDVGDRFAEEARRIHYGEEPHRGIRGQATPEERLALREEGIETMSIPV | -0.919 |
| HMDLQHQLTPRLKRLRLSGILETLEVRNQQAIAEKWSYVEFLTRLAEDEVERRDHKQLTLRLR | -0.529 |
| HMDLSYPFTTVTTDNVNMRRSASSSSVVLERIDKGDSITVLGTSGNYYKVSYNDRTGYVLKQYVDVSAATT | -0.254 |
| HMDLTPEEQMDLYRLLDSLPTEERTYLILHYFEERSFPEMAEILSMPEAKLKSRFYRILHRLRAHL | -2.74 |
| HMDLTSDANLKEAKDQILNLLNDGKRHHVTEINKILLPPVQVQEALRFLIHEETVRVDASFLF | -0.104 |
| HMDLVESYDLKIIYTSELINLLIDSSRLEEALNLFKDLKDEIDDVENLGFSAKNNLDYMESKLLHLG | -1.94 |
| HMDLYIILGLERSATLSDVRRAYRRLARKYHPGINPGDRNSASVFTRVSEAYQVLSDPEQRRRYDSR | -2.84 |
| HMDMDRRALLLALINDRYHASVAEFARAINKAPAQVHQWLSGNRALGNAGARDIEIRLNLAQGYFDH | -2.16 |
| HMDMQMPIMNGLEFLERINLTLDDNFSIIVLTGKIEDKSIEKSFELGINAYLRKPFNIYALLGIVRQN | -0.135 |
| HMDMSDFEVVRDMYLTGKVWNAGDIVEAKGITGEVVRKGTNYLSFVDKNGKVHKAWLHEIEL | -0.197 |
| HMDNAILQELYDYYKEDPSLSQSELIISMLTRIQEAVGYVSKDVQEEVARLAGVNRGYVAAIIKNLPHL | -1.17 |
| HMDNEYDKVYQAALSKLEGYPRSSITTAVIKDVVAQTIKYFEIKNFGYEDTIINQLQSAFTVKSSS | -0.0883 |
| HMDNLSESQIKAYSSILSRTHEISDLAENKDYLAFSLWIANILRDPQSVREETAKRVFSALHTNTDFK | -0.984 |
| HMDNMFMPPVNGWDVRQALQKLQNEMGLQVKMEYSPSETITEGYVISYTPIDGMKVEKGDEVTLVISTGPE | -0.0359 |
| HMDNMTEMQKAVTALIEKSGGSIDNLSVIYDHLKKKYPSFDLKDYGYSRFSSFLRSMENIMVRGNAVTLRS | -0.211 |
| HMDNPPDRAEIEQMLKDAGLTPEADAMAALSDLARTLDPGDFRQTLEKITLYKLGDSTPIGLDDIAAGAP | 0.0465 |
| HMDNQSIVRINDGDGAWRQRLGEHFGHLPRDRKRGEIVLQVDAADWRWLQTQGYAPRFDAALSAQLQTTL | -0.479 |
| HMDNVLGKSGKVIFVNEEINSYGRAFIPGHGEWNIRTKSDQNIHINDGIKVIERDGITLVVEL | -1.26 |
| HMDNVQLRNFAIKATEASIIYLDQEQRNFFWYNNNKKLMTVPFDENPYSAFAAYLKTDEGSEVYKAIEKKF | -1.97 |
| HMDNWAALLSEREVQVSRLVANGASNKEIADHLAITERTVKAHLTAVFEKLGVRDRLQLSLRVNGL | -3.94 |
